Assay [1] concerns the target human ATF7IP peptide, K16me3, C-terminal biotin (human). Description: SPR; same chip and buffer, 25 °C; kinetics not fitted, KD by steady-state affinity analysis; for all tri-methylated peptides and LIG1 K126me2 G9a SET-domain in twofold dilutions from 200 µM.
Assay [2] deals with human ATF7IP peptide, unmodified (K16me0), C-terminal biotin (human). The assay can be described thus: SPR; biotinylated peptides immobilised on streptavidin chip SA, Biacore T200, 25 °C, 10 mM HEPES pH 7.4, 150 mM NaCl; G9a SET-domain 1.5-fold dilutions from 20 or 10 µM; 1:1 binding model, KD calculated from kon and koff.
Assay [3] addresses histone H3 peptide, unmodified (K9me0), C-terminal biotin (human). The description is as above.
In assay [4] the target is human ATF7IP peptide, K16me1, C-terminal biotin (human). Described as above.
For assay [5], the target named is histone H3 peptide, K9me1, C-terminal biotin (human). The assay is described as above.
For assay [6], the target named is human ATF7IP peptide, K16me2, C-terminal biotin (human). The description is as above.
Assay [7] has as its target histone H3 peptide, K9me2, C-terminal biotin (human). The description is as above.

As to “human G9a SET-domain (residues 913–1193) (from UniProt Q96KQ7 913-1193) (domain or fragment)”, the dissociation constant (Kd) is over 1000 nM in assay [1]; 180 nM in assay [2]; 90 nM in assay [3]; 43 nM in assay [4]; 430 nM in assay [5]; 38 nM in assay [6]. Moreover, the Kd in assay [7] was 350 nM.

These data come from publication PMC6172828.
